Reference: patent publication US20260250421A1 (BIOCYTOGEN PHARMACEUTICALS BEIJING, published 2026)

T1: His-tagged human PTK7 protein (human, UniProt Q13308 31-704)
T1 construct: Bought protein; also called hPTK7-His; not shown: His tag
T1 sequence: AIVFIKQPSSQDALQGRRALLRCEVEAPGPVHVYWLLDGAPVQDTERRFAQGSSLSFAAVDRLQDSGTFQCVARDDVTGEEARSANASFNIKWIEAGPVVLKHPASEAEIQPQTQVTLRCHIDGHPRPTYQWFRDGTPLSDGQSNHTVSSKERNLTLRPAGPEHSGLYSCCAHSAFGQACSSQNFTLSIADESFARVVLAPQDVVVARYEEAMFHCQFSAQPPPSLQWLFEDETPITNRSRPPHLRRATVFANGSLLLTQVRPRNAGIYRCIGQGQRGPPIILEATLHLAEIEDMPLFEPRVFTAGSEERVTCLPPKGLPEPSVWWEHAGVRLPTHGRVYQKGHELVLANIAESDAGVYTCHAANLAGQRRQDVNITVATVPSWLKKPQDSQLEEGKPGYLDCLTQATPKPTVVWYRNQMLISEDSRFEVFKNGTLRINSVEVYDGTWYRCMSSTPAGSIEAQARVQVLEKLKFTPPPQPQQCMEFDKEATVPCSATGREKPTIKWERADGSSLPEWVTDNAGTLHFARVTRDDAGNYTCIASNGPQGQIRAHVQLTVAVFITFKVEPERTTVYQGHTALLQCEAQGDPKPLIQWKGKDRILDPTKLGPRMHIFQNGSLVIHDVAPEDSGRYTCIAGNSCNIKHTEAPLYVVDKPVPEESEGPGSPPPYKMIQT

T2: dog PTK7 on dog cancer cell lines (dog, UniProt A0A8I3N574 31-1070)
T2 construct: whole, on cells; Endogenous protein on dog tumour cell lines; also called PTK7 on CMT-U27 and D-17 cells; dog cancer cells
T2 sequence: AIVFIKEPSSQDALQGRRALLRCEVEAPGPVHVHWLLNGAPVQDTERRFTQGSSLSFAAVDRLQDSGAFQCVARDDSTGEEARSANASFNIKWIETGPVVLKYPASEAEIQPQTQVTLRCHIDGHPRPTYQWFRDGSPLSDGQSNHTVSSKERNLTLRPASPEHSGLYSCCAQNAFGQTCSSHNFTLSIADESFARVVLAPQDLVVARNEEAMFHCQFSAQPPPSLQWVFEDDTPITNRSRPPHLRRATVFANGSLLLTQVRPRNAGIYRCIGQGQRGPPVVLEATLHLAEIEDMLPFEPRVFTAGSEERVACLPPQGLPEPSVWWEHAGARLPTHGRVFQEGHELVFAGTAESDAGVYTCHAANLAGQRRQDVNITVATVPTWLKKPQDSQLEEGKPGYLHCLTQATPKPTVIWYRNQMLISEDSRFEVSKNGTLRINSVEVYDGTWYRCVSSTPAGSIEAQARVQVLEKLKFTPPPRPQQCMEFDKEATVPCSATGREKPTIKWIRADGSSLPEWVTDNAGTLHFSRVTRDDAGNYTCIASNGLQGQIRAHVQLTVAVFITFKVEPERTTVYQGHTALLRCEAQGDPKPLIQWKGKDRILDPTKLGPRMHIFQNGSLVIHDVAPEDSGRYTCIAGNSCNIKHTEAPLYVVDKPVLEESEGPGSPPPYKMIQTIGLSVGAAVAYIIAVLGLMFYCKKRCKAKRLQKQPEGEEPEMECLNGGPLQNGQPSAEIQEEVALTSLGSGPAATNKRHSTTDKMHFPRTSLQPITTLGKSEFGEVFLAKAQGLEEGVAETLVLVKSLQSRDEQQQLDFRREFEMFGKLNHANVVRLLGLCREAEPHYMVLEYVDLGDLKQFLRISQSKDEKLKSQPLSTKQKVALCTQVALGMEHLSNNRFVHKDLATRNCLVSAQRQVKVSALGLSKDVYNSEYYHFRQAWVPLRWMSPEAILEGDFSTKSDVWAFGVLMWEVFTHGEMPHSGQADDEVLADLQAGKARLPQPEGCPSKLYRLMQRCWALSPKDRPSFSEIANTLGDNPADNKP


What was measured:
[1] = target: T1, His-tagged human PTK7 protein; assay: BLI Octet binning on hPTK7-His; competitor 2D11
Description: Relative positions of target protein epitope between a pair of purified anti-PTK7 antibodies were analyzed by Biolayer Interferometry (BLI) using ForteBio Octet system at 30° C. A total of […] purified antibodies were used: 1A7, 1A11, 1F2, 2A5, 2D11, 2F5, 3C4 and 3E6.
1×HBS-EP+ buffer (10 mM 4-(2-hydroxyethyl)-1-piperazineethanesulfonic acid (HEPES), 150 mM NaCl, 3 mM ethylenediaminetetraacetic acid (EDTA) and 0.05% P20, pH7.4) diluted from HBS-EP+ buffer (10×) was used as the running buffer throughout the experiment. His-tagged human PTK7 protein was captured at a flow rate of 10 μL/min, and 200 nM of antibody (Analyte 1) was injected at a flow rate of 30 μL/min to bind the ligand. Another antibody (Analyte 2) was injected under the same conditions to determine whether the binding of different antibodies interfered with each other. The binding time was 300 s for each antibody.
The binding value of each antibody was obtained using Data Analysis HT 12.0. To quantify the interference of one antibody binding to another, a binding ratio was calculated to compare each pair of antibodies. The binding ratio is defined as the binding value of the second antibody (Analyte 2), divided by the binding value of the first antibody (Analyte 1). […] In general, antibody pairs that interfere with each other have the same or overlapping epitopes.

[2] = target: T2, dog PTK7 on dog cancer cell lines; assay: flow cytometry, D-17 dog cells, Ab 5 ug/mL
Description: The binding activity of anti-PTK7 antibodies to cancer cell lines was verified by flow cytometry. […] Purified anti-PTK7 antibody with a concentration of 5 μg/mL was added to each well and was incubated at 4° C. for 30 minutes. […] The cells were collected, and the mean fluorescence intensity (MFI) was determined. Human IgG1 was used as ISO control.

Binder | binding ratio [1] | MFI [2]
1A7 (antibody, human IgG1, V domains shown, also called anti-PTK7 antibody 1A7) VH: QVQLVESGGGVVQPGRSLRLSCAASGFTFSNYGMHWVRQAPGKGLEWVAVIYYDGSNKFYADSVKGRFTISRDNSKNTLYLQMSSLRAEDTAVYYCARDVAPPGSRAEYFHHWGQGTLVTVSS VL: not shown | 0.1 | 120000
2A5 (antibody, V domains shown, also called anti-PTK7 antibody 2A5) VH: QVQLVQSGGGVVQPGRSLRLSCAASGFTFSNYGMHWVRQAPGKGLEWVAVIWYDGRNKYYADSVKGRFTISRDNSKNTLYLQMNSLRAEDTAVYYCARDVAPAGSRAEYFQNWGQGTLVTVSS VL: not shown | -0.07 | 95900
2D11 (antibody, V domains shown, also called anti-PTK7 antibody 2D11) VH: QVQLVESGGGVVQPGRSLRLSCAASGFTFSSYGMHWVRQAPGKGLEWVAVIFYDGSNKYYADSVKGRFTISRDNSKNTLYLQMNSLRAEDTSVYYCARDVAAPGSRAEYFQNWGQGTLVTVSS VL: not shown | 0.15 | 106000
2F5 (antibody, V domains shown, also called anti-PTK7 antibody 2F5) VH: QVQLVESGGGVVQPGRSLRLSCVASGFTFSNYGMHWVRQAPGKGLEWVAIIYYDGSNKYYADSVKGRFTISRDNSKNTLYLQMNSLRAEDTAVYYCARDVAAAGSRAEYLHHWGQGTLVTVSS VL: not shown | 0.07 | 131000
1A11 (antibody, V domains shown, also called anti-PTK7 antibody 1A11) VH: QVQLVQSGPGLVKPSETLSLTCTVSGGSINSYYWNWIRQPPGKGLEWIGYIYYSGSTNYNPSLKSRVTISVDTSKNQFSLKLSSVTAADTAVYYCARDPHDYIRGHFDLWGRGTLFTVSS VL: not shown | 0.71 | 90600
1F2 (antibody, V domains shown, also called anti-PTK7 antibody 1F2) VH: QVQLVQSGGGLVQPGGSLRLSCAASGFTFSRYEMNWVRQAPGKGLEWVSYINSIGSAINYADSVKGRFTISRDNAKNSLYLQMRSLRAEDTAVYYCVREDNWNPGYWGQGTLVTVSS VL: not shown | 0.62 | 64100
3C4 (antibody, V domains shown, also called anti-PTK7 antibody 3C4) VH: QVQLEQSRAEVKKPGESLRISCKGSGYSFTSYWISWVRQMPGKGLEWMGRIDPSDSYTNYNPSFQGHVTISADKSISTAYLQWSSLKASDTAMYYCARRDGSYFDFDYWGQGTLVTVSS VL: not shown | 0.91 | 34600
3E6 (antibody, V domains shown, also called anti-PTK7 antibody 3E6) VH: QVQLVESGAEVKKPGESLRISCRGSGYSFTSYWISWVRQMPGKGLEWMGRIDPSDSYTKYSPSFQGHVTISADKSISTAYLQWSSLKASDTAMYYCARRDGDYFDFDYWGQGTLVTVSS VL: not shown | 0.76 | 86300
